Tests used:
Assay in all cases: SPR
[1] = molecular target: IgG1 Fc fragment (prepared by IdeS digest of bevacizumab) (human)
[2] = molecular target: recombinant Fab fragment of trastuzumab (human) [IgG part: P01857]
[3] = molecular target: trastuzumab (Herceptin) (human) (UniProt P01834)

Substance	Kd [1] [µM]	Kd [2] [µM]	Kd [3] [µM]
Azo-ProtG (wild-type C2 domain of streptococcal protein G with N-terminal Azo-tag and C-terminal Strep-tag II) (domain or fragment)	0.499	19.7	–
Azo-ProtG^N478R (C2 domain of streptococcal protein G with Asn478 replaced by Arg, N-terminal Azo-ta (domain or fragment)	0.682	> 256	0.459
